Source: patent US20210356479A1 (BLOODWORKS, published 2021)

T1: human Kell glycoprotein, k form (KEL2) (human, UniProt P23276 1-732)
T1 construct: whole, on cells; On human k/k or K-k+ RBCs; also called k antigen
T1 sequence (looked up): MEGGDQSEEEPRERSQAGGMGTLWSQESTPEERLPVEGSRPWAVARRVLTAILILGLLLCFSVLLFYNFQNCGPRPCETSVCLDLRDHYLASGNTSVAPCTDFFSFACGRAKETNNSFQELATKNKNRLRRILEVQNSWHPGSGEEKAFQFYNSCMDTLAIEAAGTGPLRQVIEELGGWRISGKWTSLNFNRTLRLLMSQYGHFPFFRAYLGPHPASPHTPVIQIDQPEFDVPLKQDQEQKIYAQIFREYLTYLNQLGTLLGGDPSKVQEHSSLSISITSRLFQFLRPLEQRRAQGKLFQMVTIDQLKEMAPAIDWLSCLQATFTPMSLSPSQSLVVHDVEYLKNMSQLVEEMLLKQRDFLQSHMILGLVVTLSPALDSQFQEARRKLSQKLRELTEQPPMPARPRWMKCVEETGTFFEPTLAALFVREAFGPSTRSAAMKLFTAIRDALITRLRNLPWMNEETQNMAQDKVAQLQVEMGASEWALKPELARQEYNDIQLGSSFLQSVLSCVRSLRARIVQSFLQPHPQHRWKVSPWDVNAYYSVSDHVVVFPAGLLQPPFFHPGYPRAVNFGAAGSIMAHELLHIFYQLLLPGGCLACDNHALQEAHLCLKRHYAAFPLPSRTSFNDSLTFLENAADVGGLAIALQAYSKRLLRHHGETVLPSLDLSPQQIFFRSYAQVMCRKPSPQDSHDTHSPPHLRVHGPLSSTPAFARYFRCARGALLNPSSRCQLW

T2: human Kell glycoprotein, K form (KEL1) (human, UniProt P23276 1-732)
T2 construct: whole, on cells; On human K/K or K+k+ RBCs and on RBCs of K transgenic mice; also called K antigen; K variant
T2 sequence (looked up): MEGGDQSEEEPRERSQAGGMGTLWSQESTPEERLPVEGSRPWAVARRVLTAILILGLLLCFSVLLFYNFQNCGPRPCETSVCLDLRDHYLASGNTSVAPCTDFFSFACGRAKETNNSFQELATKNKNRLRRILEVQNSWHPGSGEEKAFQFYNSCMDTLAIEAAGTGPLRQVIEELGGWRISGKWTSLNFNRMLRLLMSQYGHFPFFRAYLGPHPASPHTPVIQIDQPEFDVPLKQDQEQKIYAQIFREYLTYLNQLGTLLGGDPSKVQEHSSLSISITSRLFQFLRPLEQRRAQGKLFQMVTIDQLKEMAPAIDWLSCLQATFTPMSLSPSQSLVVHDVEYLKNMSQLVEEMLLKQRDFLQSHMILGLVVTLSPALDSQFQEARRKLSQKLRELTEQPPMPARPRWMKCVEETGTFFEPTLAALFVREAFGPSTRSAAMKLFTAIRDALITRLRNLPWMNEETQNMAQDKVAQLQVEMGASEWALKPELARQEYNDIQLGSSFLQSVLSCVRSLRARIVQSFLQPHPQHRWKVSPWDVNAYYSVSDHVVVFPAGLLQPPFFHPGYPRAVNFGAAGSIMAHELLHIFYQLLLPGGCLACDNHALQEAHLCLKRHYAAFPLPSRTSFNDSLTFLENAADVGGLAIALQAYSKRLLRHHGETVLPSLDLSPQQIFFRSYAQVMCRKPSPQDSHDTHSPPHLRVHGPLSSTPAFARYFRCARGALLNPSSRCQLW

B1: PUMA 1 human IgG3-06 isoallotype (antibody)
heavy: EVQLQQSGPELVKPGASVKMSCKASGYTFTDYYMKWVKQSHGKSLEWIGDLNPNNGDTFYNQKFKGKATLTVDKSSSTAYIQLNSLTSEDSAVYYCAREAGSSFGSSCNYWGQGTTLTVS
light: SVVMTQTPKFLLVSAGDRVTITCKASQTVSKDVAWYQQQPGQSPKLLIYYASNRYTGVPDRFTGSGYGTDFTFTISTVQAEDLAVYFCQQDYSSPYTFGGGTKLEIK
notes: Isoallotype named in CLM-00007; also called PUMA1-IgG3-6; not shown: human IgG3 heavy chain constant region, isoallotype IGHG3*06; human kappa light chain constant region (vector pFUSE2-CLIg-hk)
B2: PUMA 1 human IgG3-14 isoallotype (antibody)
heavy: EVQLQQSGPELVKPGASVKMSCKASGYTFTDYYMKWVKQSHGKSLEWIGDLNPNNGDTFYNQKFKGKATLTVDKSSSTAYIQLNSLTSEDSAVYYCAREAGSSFGSSCNYWGQGTTLTVS
light: SVVMTQTPKFLLVSAGDRVTITCKASQTVSKDVAWYQQQPGQSPKLLIYYASNRYTGVPDRFTGSGYGTDFTFTISTVQAEDLAVYFCQQDYSSPYTFGGGTKLEIK
notes: Isoallotype named in CLM-00007; not shown: human IgG3 heavy chain constant region, isoallotype IGHG3*14; human kappa light chain constant region (vector pFUSE2-CLIg-hk)
B3: PUMA 1 human IgG3-18 isoallotype (antibody)
heavy: EVQLQQSGPELVKPGASVKMSCKASGYTFTDYYMKWVKQSHGKSLEWIGDLNPNNGDTFYNQKFKGKATLTVDKSSSTAYIQLNSLTSEDSAVYYCAREAGSSFGSSCNYWGQGTTLTVS
light: SVVMTQTPKFLLVSAGDRVTITCKASQTVSKDVAWYQQQPGQSPKLLIYYASNRYTGVPDRFTGSGYGTDFTFTISTVQAEDLAVYFCQQDYSSPYTFGGGTKLEIK
notes: Isoallotype named in CLM-00007; not shown: human IgG3 heavy chain constant region, isoallotype IGHG3*18; human kappa light chain constant region (vector pFUSE2-CLIg-hk)
B4: PUMA 1 human IgG3-09 isoallotype (antibody)
heavy: EVQLQQSGPELVKPGASVKMSCKASGYTFTDYYMKWVKQSHGKSLEWIGDLNPNNGDTFYNQKFKGKATLTVDKSSSTAYIQLNSLTSEDSAVYYCAREAGSSFGSSCNYWGQGTTLTVS
light: SVVMTQTPKFLLVSAGDRVTITCKASQTVSKDVAWYQQQPGQSPKLLIYYASNRYTGVPDRFTGSGYGTDFTFTISTVQAEDLAVYFCQQDYSSPYTFGGGTKLEIK
notes: Isoallotype named in CLM-00007; not shown: human IgG3 heavy chain constant region, isoallotype IGHG3*09; human kappa light chain constant region (vector pFUSE2-CLIg-hk)
B5: PUMA 1 human IgG3-12 isoallotype (antibody)
heavy: EVQLQQSGPELVKPGASVKMSCKASGYTFTDYYMKWVKQSHGKSLEWIGDLNPNNGDTFYNQKFKGKATLTVDKSSSTAYIQLNSLTSEDSAVYYCAREAGSSFGSSCNYWGQGTTLTVS
light: SVVMTQTPKFLLVSAGDRVTITCKASQTVSKDVAWYQQQPGQSPKLLIYYASNRYTGVPDRFTGSGYGTDFTFTISTVQAEDLAVYFCQQDYSSPYTFGGGTKLEIK
notes: Isoallotype named in CLM-00007; not shown: human IgG3 heavy chain constant region, isoallotype IGHG3*12; human kappa light chain constant region (vector pFUSE2-CLIg-hk)
B6: PUMA 1 human IgG3-19 isoallotype (antibody)
heavy: EVQLQQSGPELVKPGASVKMSCKASGYTFTDYYMKWVKQSHGKSLEWIGDLNPNNGDTFYNQKFKGKATLTVDKSSSTAYIQLNSLTSEDSAVYYCAREAGSSFGSSCNYWGQGTTLTVS
light: SVVMTQTPKFLLVSAGDRVTITCKASQTVSKDVAWYQQQPGQSPKLLIYYASNRYTGVPDRFTGSGYGTDFTFTISTVQAEDLAVYFCQQDYSSPYTFGGGTKLEIK
notes: Isoallotype named in CLM-00007; not shown: human IgG3 heavy chain constant region, isoallotype IGHG3*19; human kappa light chain constant region (vector pFUSE2-CLIg-hk)
B7: PUMA 1 human IgG3-17 isoallotype (antibody)
heavy: EVQLQQSGPELVKPGASVKMSCKASGYTFTDYYMKWVKQSHGKSLEWIGDLNPNNGDTFYNQKFKGKATLTVDKSSSTAYIQLNSLTSEDSAVYYCAREAGSSFGSSCNYWGQGTTLTVS
light: SVVMTQTPKFLLVSAGDRVTITCKASQTVSKDVAWYQQQPGQSPKLLIYYASNRYTGVPDRFTGSGYGTDFTFTISTVQAEDLAVYFCQQDYSSPYTFGGGTKLEIK
notes: Isoallotype named in CLM-00007; not shown: human IgG3 heavy chain constant region, isoallotype IGHG3*17; human kappa light chain constant region (vector pFUSE2-CLIg-hk)
B8: PUMA 1 human IgG3-08 isoallotype (antibody)
heavy: EVQLQQSGPELVKPGASVKMSCKASGYTFTDYYMKWVKQSHGKSLEWIGDLNPNNGDTFYNQKFKGKATLTVDKSSSTAYIQLNSLTSEDSAVYYCAREAGSSFGSSCNYWGQGTTLTVS
light: SVVMTQTPKFLLVSAGDRVTITCKASQTVSKDVAWYQQQPGQSPKLLIYYASNRYTGVPDRFTGSGYGTDFTFTISTVQAEDLAVYFCQQDYSSPYTFGGGTKLEIK
notes: Isoallotype named in CLM-00007; not shown: human IgG3 heavy chain constant region, isoallotype IGHG3*08; human kappa light chain constant region (vector pFUSE2-CLIg-hk)
B9: PUMA 1 human IgG3-15 isoallotype (antibody)
heavy: EVQLQQSGPELVKPGASVKMSCKASGYTFTDYYMKWVKQSHGKSLEWIGDLNPNNGDTFYNQKFKGKATLTVDKSSSTAYIQLNSLTSEDSAVYYCAREAGSSFGSSCNYWGQGTTLTVS
light: SVVMTQTPKFLLVSAGDRVTITCKASQTVSKDVAWYQQQPGQSPKLLIYYASNRYTGVPDRFTGSGYGTDFTFTISTVQAEDLAVYFCQQDYSSPYTFGGGTKLEIK
notes: Isoallotype named in CLM-00007; not shown: human IgG3 heavy chain constant region, isoallotype IGHG3*15; human kappa light chain constant region (vector pFUSE2-CLIg-hk)
B10: PUMA 1 human IgG3-11 isoallotype (antibody)
heavy: EVQLQQSGPELVKPGASVKMSCKASGYTFTDYYMKWVKQSHGKSLEWIGDLNPNNGDTFYNQKFKGKATLTVDKSSSTAYIQLNSLTSEDSAVYYCAREAGSSFGSSCNYWGQGTTLTVS
light: SVVMTQTPKFLLVSAGDRVTITCKASQTVSKDVAWYQQQPGQSPKLLIYYASNRYTGVPDRFTGSGYGTDFTFTISTVQAEDLAVYFCQQDYSSPYTFGGGTKLEIK
notes: Isoallotype named in CLM-00007; not shown: human IgG3 heavy chain constant region, isoallotype IGHG3*11; human kappa light chain constant region (vector pFUSE2-CLIg-hk)
B11: PUMA 1 human IgG3-16 isoallotype (antibody)
heavy: EVQLQQSGPELVKPGASVKMSCKASGYTFTDYYMKWVKQSHGKSLEWIGDLNPNNGDTFYNQKFKGKATLTVDKSSSTAYIQLNSLTSEDSAVYYCAREAGSSFGSSCNYWGQGTTLTVS
light: SVVMTQTPKFLLVSAGDRVTITCKASQTVSKDVAWYQQQPGQSPKLLIYYASNRYTGVPDRFTGSGYGTDFTFTISTVQAEDLAVYFCQQDYSSPYTFGGGTKLEIK
notes: Isoallotype named in CLM-00007; not shown: human IgG3 heavy chain constant region, isoallotype IGHG3*16; human kappa light chain constant region (vector pFUSE2-CLIg-hk)
B12: PUMA 1 human IgG3-13 isoallotype (antibody)
heavy: EVQLQQSGPELVKPGASVKMSCKASGYTFTDYYMKWVKQSHGKSLEWIGDLNPNNGDTFYNQKFKGKATLTVDKSSSTAYIQLNSLTSEDSAVYYCAREAGSSFGSSCNYWGQGTTLTVS
light: SVVMTQTPKFLLVSAGDRVTITCKASQTVSKDVAWYQQQPGQSPKLLIYYASNRYTGVPDRFTGSGYGTDFTFTISTVQAEDLAVYFCQQDYSSPYTFGGGTKLEIK
notes: also called PUMA1-IgG3-13; not shown: human kappa light chain constant region (vector pFUSE2-CLIg-hk)

Experiments:
[1] = biological target: T1, human Kell glycoprotein, k form (KEL2); assay: flow cytometry on human K-k+ RBCs
[2] = biological target: T2, human Kell glycoprotein, K form (KEL1); assay: flow cytometry on human K+k+ RBCs, detected with polyclonal anti-IgG
Procedure: Flow cytometry consisted of incubating test RBCs with PUMA 1 variants, followed by the anti-IgG being evaluated, followed by a detection reagent. Test RBCs included RBCs from K mice, wild-type mice, and reagent RBCs from humans with the phenotype of (K+k+) or (K−k+). Test RBCs were resuspended in 50 microliters of supernatants of PUMA 1 isoallotypes; in some cases a 1/10 dilution in phosphate buffered saline (PBS) was used. For purified IgG1-IgG4 PUMA 1, the antibodies were diluted in PBS at the indicated concentrations. The tested anti-IgG reagents were used undiluted. Detection reagents consisted of donkey anti-rabbit conjugated to phycoerythrin at a 1/200 dilution (Affymetrix cat #12-4739-81, Santa Clara, Calif.), goat anti-mouse IgM conjugated to allophycocyanin at a 1/100 dilution (BD Biosciences, cat #550826, San Jose, Calif.), and goat anti-mouse Igs conjugated to allophycocyanin at a 1/100 dilution (SouthernBiotech cat #1020-11s, Birmingham, Ala.). All anti-IgG subclass antibodies were conjugated to phycoerythrin, were purchased from SouthernBiotech (catalog numbers 9056-09, 9070-09, 9210-09, 9200-09), and were used at a dilution of 1.200. All incubations were performed for 30 min at room temperature, followed by three washes with PBS. All flow cytometry was performed on an Accuri 4 color cytometer (BD biosciences, San Jose Calif.) and all data was analyzed with Flo-Jo version 10.
To assess the sensitivity of commercially available anti-IgG preparations for different human IgG subclasses bound to RBCs, K+k+ RBCs were first incubated with PUMA 1 of the different human IgG subclasses, followed by incubation with anti-IgG. Treated RBCs were then stained with a fluorescently labeled antibody specific for the species in which the anti-IgG was generated (and non-reactive with human IgG). For each anti-IgG, the same secondary antibody was used to detect binding of the anti-IgG to each human PUMA 1 IgG subclass. To assess relative sensitivity, titrations of each PUMA 1 IgG subclass were carried out and samples were analyzed by flow cytometry using mean fluorescent intensity (MFI) to quantify staining (FIGS. 28A, 28B).

Binder	binding result [1]	binding result [2]
B1	no binding	binds
B2	no binding	binds
B3	no binding	binds
B4	no binding	binds
B5	no binding	binds
B6	no binding	binds
B7	no binding	binds
B8	no binding	binds
B9	no binding	binds
B10	no binding	binds
B11	no binding	binds
B12	no binding	binds
